Assay results published in PMC8682993 (Science Advances, 2021).
Several values for one entry are separate records, joined by “and”; a condition that tells them apart may be missing. Identical values can stand only once.

How the values were obtained:
[1] = target: T1, full-length yeast Hsp90 (Hsp82) (yeast, UniProt P02829 1-709); assay: AUC
[2] = target: T1, full-length yeast Hsp90 (Hsp82); assay: fluorescence polarisation

T1 sequence (P02829 whole entry): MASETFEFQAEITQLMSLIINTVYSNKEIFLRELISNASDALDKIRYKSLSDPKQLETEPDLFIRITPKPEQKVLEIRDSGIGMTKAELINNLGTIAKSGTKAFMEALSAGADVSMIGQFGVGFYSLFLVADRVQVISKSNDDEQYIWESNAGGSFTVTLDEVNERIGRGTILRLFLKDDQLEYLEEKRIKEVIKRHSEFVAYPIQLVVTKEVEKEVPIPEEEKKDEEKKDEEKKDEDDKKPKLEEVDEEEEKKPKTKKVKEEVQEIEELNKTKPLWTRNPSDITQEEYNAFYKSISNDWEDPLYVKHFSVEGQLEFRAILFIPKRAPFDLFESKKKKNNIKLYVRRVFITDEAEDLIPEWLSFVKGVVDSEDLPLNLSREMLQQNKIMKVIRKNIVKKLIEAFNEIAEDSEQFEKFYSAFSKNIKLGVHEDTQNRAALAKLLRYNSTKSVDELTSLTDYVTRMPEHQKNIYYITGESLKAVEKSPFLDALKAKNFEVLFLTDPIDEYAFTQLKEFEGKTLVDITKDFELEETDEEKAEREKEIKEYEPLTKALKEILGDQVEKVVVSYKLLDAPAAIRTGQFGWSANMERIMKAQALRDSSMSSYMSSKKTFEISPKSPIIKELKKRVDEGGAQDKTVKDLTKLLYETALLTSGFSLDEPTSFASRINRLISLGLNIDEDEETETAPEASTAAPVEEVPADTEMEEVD

Row | Binder | binding result [1] | Kd [2]
1 | MR-LBD (C805S/A841C) (domain or fragment) APTKEPSVNSALVPQLTSITHALTPSPAMILENIEPETVYAGYDNSKPDTAESLLSTLNRLAAKQMIQVVKWAKVLPGFKNLPLEDQITLIQYSWMSLSSFALSWRSYKHTNSQLLYFAPDLVFNEEKMHQSCMYELCQGMRQISLQFVRLQLTFEEYSIMKVLLLLSTVPKDGLKSQAAFEEMRTNYIKELRKMVTKCPNSSGQSWQRFYQLTKLLDSMHDLVSDLLEFCFYTFRESQALKVEFPAMLVEIITDQLPKVESGNAKPLYFHRK | binds | 
2 | p53-DBD (C124S/C229S/C277S) (domain or fragment) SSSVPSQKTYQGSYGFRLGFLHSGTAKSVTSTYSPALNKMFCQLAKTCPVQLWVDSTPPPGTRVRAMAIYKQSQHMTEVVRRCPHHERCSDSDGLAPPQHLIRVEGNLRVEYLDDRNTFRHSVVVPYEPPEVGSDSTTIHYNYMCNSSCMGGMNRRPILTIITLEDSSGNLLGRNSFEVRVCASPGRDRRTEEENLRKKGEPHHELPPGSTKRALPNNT | binds | 
3 | rat MR-LBD (amino acids 709 to 981; C805S) (domain or fragment, ATTO 488 maleimide, randomly on cysteine residues (anisotropy and AUC)) APTKEPSVNSALVPQLTSITHALTPSPAMILENIEPETVYAGYDNSKPDTAESLLSTLNRLAAKQMIQVVKWAKVLPGFKNLPLEDQITLIQYSWMSLSSFALSWRSYKHTNSQLLYFAPDLVFNEEKMHQSAMYELCQGMRQISLQFVRLQLTFEEYSIMKVLLLLSTVPKDGLKSQAAFEEMRTNYIKELRKMVTKCPNSSGQSWQRFYQLTKLLDSMHDLVSDLLEFCFYTFRESQALKVEFPAMLVEIITDQLPKVESGNAKPLYFHRK |  | 5.7 µM and 5.3 µM and 2.2 µM and 1.9 µM
